# Patent US20030008291A1
# Assays:
# UvrA [1] = assay: SPR (BIAcore), His-tagged β domain immobilised on Ni-NTA sensor chip, UvrA in solution, with ATP
# UvrA [2] = assay: SPR (BIAcore), His-tagged β domain immobilised on Ni-NTA sensor chip, UvrA in solution, without ATP
# [3] = biological target: TRCF-β (β domain of Thermus thermophilus HB8 transcription-repair coupling factor, His-tagged) (Thermus thermophilus HB8); assay: SPR (BIAcore), His-tagged β domain immobilised on Ni-NTA sensor chip, UvrA injected, with ATP (+ ATP)
# [4] = biological target: TRCF-β (β domain of Thermus thermophilus HB8 transcription-repair coupling factor, His-tagged) (Thermus thermophilus HB8); assay: SPR (BIAcore), His-tagged β domain immobilised on Ni-NTA sensor chip, UvrA injected, without ATP (- ATP)
# Chain of UvrA (enzyme) (Q56242 whole entry): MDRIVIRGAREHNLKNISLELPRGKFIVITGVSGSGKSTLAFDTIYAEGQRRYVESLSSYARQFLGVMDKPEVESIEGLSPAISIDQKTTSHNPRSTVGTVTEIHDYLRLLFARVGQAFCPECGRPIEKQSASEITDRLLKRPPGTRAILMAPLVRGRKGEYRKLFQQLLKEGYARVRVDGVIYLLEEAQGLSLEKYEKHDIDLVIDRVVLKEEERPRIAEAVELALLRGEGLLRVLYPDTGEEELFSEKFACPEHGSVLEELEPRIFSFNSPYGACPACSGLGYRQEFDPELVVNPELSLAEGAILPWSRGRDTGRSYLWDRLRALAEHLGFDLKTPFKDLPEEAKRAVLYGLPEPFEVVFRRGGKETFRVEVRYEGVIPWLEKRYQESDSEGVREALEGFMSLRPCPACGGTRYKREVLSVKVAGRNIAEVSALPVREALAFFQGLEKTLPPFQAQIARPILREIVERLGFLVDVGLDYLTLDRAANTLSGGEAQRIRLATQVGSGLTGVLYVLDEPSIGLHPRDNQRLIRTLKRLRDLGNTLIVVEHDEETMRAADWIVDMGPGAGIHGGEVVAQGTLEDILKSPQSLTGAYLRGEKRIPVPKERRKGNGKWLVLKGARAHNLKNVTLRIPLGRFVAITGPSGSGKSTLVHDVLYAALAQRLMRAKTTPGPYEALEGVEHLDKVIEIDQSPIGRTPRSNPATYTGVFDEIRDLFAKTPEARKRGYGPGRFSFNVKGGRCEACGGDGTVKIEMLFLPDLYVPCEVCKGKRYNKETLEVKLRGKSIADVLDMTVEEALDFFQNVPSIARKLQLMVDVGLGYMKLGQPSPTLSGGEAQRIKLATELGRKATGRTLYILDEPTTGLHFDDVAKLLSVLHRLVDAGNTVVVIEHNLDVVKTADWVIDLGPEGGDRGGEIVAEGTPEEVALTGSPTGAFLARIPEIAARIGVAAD
# Chain of UvrA (Q56242 whole entry): as above
Kd (UvrA [1]) [nM],Kd (UvrA [2]) [nM],koff [3] [s⁻¹],kon [3] [M⁻¹ s⁻¹],koff [4] [s⁻¹],kon [4] [M⁻¹ s⁻¹],Substance
500,1300,–,–,–,–,"TRCF-β (β domain of Thermus thermophilus HB8 transcription-repair coupling factor, His-tagged) (enzyme)"
–,–,0.07,150000,0.13,100000,UvrA (enzyme)
